B1: AMRA11-2 hIgG1 (antibody, V domains shown)
VH: EVQLVESGGGLVQPGGSLRLSCAASGFTISSSSIHWVRQAPGKGLEWVASISSYSSSTYYADSVKGRFTISADTSKNTAYLQMNSLRAEDTAVYYCARYPYGWGWGGSGLDYWGQGTLVTVSS
VL: DIQMTQSPSSLSASVGDRVTITCRASQSVSSAVAWYQQKPGKAPKLLIYSASSLYSGVPSRFSGSRSGTDFTLTISSLQPEDFATYYCQQSSSSLITFGQGTKVEIKR
B2: AMRA3-18 hIgG1 (antibody, V domains shown)
VH: EVQLVESGGGLVQPGGSLRLSCAASGFTVSYSSIHWVRQAPGKGLEWVASISSSSGYTSYADSVKGRFTISADTSKNTAYLQMNSLRAEDTAVYYCARYAWWAHGLDYWGQGTLVTVSS
VL: DIQMTQSPSSLSASVGDRVTITCRASQSVSSAVAWYQQKPGKAPKLLIYSASSLYSGVPSRFSGSRSGTDFTLTISSLQPEDFATYYCQQGSYTYRLITFGQGTKVEIKR
B3: AMRA3-7 hIgG1 (antibody, V domains shown)
VH: EVQLVESGGGLVQPGGSLRLSCAASGFTFSSYSIHWVRQAPGKGLEWVASIYSSYGYTSYADSVKGRFTISADTSKNTAYLQMNSLRAEDTAVYYCARGGWYPAMDYWGQGTLVTVSS
VL: DIQMTQSPSSLSASVGDRVTITCRASQSVSSAVAWYQQKPGKAPKLLIYSASSLYSGVPSRFSGSRSGTDFTLTISSLQPEDFATYYCQQISYVYSLITFGQGTKVEIKR

This passage reports Kd results from patent publication US20240327542A1 (published 2024).

The target in this assay is RAS-AMG510 (human;). In words: cell binding (Raji), flow cytometry; apparent KD. For orientation: Flow cytometry measures light scatter and fluorescence of single cells or particles in a stream.
Chain of RAS-AMG510 (human;) (P61769 whole entry): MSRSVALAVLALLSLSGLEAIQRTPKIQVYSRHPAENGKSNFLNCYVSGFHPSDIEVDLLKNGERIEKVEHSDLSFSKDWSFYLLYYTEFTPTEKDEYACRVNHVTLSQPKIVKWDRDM
Turning to B1, the Kd came to 45 nM.

In the case of B2, the Kd was determined as 57 nM.

As to B3, the Kd was found to be 20 nM.
